Experimental data taken from the DeepSol protein solubility set.

Assay: soluble on expression in E. coli; label from the status in PepcDB or PDB records

Sequence | soluble on expression in E. coli
MSLESLFQHIIFTEHQAEESRRLMREVRSEITRCREKIKKATEELNEEKIKLESKVQQFFEKSFFLQLLKAHENALEKQYSEITNHRNMLLQTFEAIKKQMIEEEDKFIKEITDFNNDYEITKKRELLMKENVKIEISDLENQANMLKSEMKSMEHDSSQLNELQKQKSELIQELFTLQRKLKVFEDEENESICTTKYLEAEKIKISEKPQNDTECLRLKKELELYKEDDMESVYEALQTEIEFLELTLAQKDLQESK | not soluble
MSLESPQTQSEISIHQLVVGKPANDGNIPAQCELLRCSLQEGMDILLWRGHFARPETLQLHDDLGRINFSCILEGTSRFAIQGLRRHTDWELARNRHYITHTPDCRGSASYCGRFESITLSFSPETLALWVPDISAVIKNKIDSHCCCQQQRCNAETHLTAQALRHALMRMHGGFSHEQKPSTLWLQGQSLVMLSLVLDEHREDASCLSCHFNPMERQKLLRAKDLLLADLTQAPGVAELARESGLSVLKIKRGFRVLFNNSVYGLFQAERMQEARRRLANGNTSVMTVAADLGYANASHFSAAFQKQFGVTPSTFKRGEGHHHHHH | not soluble
MSLETYIHEVVAPKLVGRDPLEIDRISKDLTGYLGFRSTGAEMRGNSAVDIGLWDLFGKATNLPIAQLLGGFSRREIRTYNTCAGNTYMRDAKGQQTANYGIGGPRRDYDDLNGFLERADELAEDLLSEGITAMKIWPFDIAAEKSGGQYISGPDLRKALEPFEKIRKRVGDRIDIMVEFHSMWQLTPAIQIARALEPYATFWHEDPIKMDSLSSLKRYAAASRAPLCASETLATRWAFRDLMETDAAGVVMLDLSWCGGISEAKKISTMAEAWHLPVAPHDCTGPVVLAASTHLSLNAPNALVQESVRAYYKTWYADLTTQLPTVTNGMITIPPGAGHGVDLAPDLDRKFEVSRRSSQIEDEGHHHHHH | not soluble
MSLEYARRQALAREGLSAAGLDALIVTGPENIFYLCGQQTPGYYTFQALILPADGDPVFLIRQLEYFNFIANTFISDAVVYQDGEDPLALLVKLIESRGLASRRIAIDKRGWFLPIAVYEALQARLGTIGDGAGVIERFRAIKSPLEVEKLEKAAAYVDEGMRAGLAAVRVGATENDLVSAMLGSAIAAGSEYLGMEPLVSVGPRTGVPHGTWRRRAITDGDPAFLEMAACHDRYHAALMRSAWIGEPPREAVDMMKACQEALQVSLDTIRPGVACEVPHIACQKVIDRAGYTDNFKKRLGYSVGISFAPDWGEGAILSLNTGVKTELQPGMTFHLPPALRIYGRFTVGVSETIVVTETGYRALGSIDRNLLIVEGHHHHHH | soluble
MSLEYQWGFANISMNYLDWTRSTTHKSGDSSHKDDFAYIELEGGAGYSWGEMYGFFDLENPFNSKTAQPGDNQRYTFKTTGRYYLGDSGFNLYGHIYGTYSLPSAEGNDYSNFHEVNTLYGIGYNATVAGVWMKPFVALHYVDQTYYSGNNGYVVGWVAGYDFTAFDENFSITNWNELEFNRAERYAAGNGGRNGVNGALALWWTPIKQFTTGIQYRYAYNKLGEDFLQDGIVYSIKYNFEGHHHHHH | not soluble
MSLFFRDVIGQEEAKYRLIQEVSEGRIPHAQLFCGPEGVGKFPLALAYARYLSCTNRSDTDACGVCPSCVKFNKLVHPDVHFVFPVVKNGRSDDYIVEWRKLVLNNPYFTINHWLNEINAENAQAVIYTKESDEIMKKLSLKSSEGGFKITLLWLPEKMQQACANKLLKLLEEPPEKTIFLLVSEAPDLILQTILSRTQRFNLRKIEEECMAEALQSKYGVQQATSISIAHLANGNFIKALETIHLNEEGHHHHHH | soluble
MSLFFTFMRGVVRVILFVINGNAHYENKEKLPKDQNYVLVAPHRTWWEPLYLAVAGSPKKFSFMAKKELFKNPVLRFILKHANAFPVDREKPGPSAIKTPVKILKNSDLSLIMFPSGTRHSSELKGGVALIAKMGRVPIVPSVYQGPLTLKELFKRKKVTVRFGEPIDISDIKKMDKDGLAEVERRMQEAFDQLDKEIDPTFKYESTEEGHHHHHH | soluble
MSLFHPEISGEWGAVKGDNIELLLNVDLSNPSPAPILLETIKVKLAGVKIGETKRANIAIFSRKVTIDSIINLDNLTTALINHIKEKEESTVSVYAKLELFDVIPVEYSRDVNFQTDLLSYLKNLRVEPKIYSIGGIPLKTPGIEGMDAKWGRVSNDSIEIIGWLKLYNPNSFPIPVTGLSADLYMNSVNIGKGVILKGTVLQPNSRGEVKVKLVLDVDNFKEAFKTHITNGERSTIRADINLVVKVGGVEYEIPIKDIETTFETDILGSIKFGEGHHHHHH | soluble
MSLFQDNPLLAQLKQKIQETLPKKEGTIKASDKGFGFLEVDSKTSYFVPPPYMKKCMHGDKVVAFIRTENEREVAEPSELIEQSLTRFIGRVKLFKGKLNVAPDHPQLKKLSLKAKTKKGLNEADFQEGDWVVAHLVRHPLKGDDGFFVQISHKITDANDKIAPWWVTLAENDLPNSEPAGIDDWQLKDDADLVREDLTALPFVTIDGESTKDMDDALYAQQLPNGDFALTIAIADPTAYITPEDEMDKVARERGFTIYLPGRNIPMLPRDLADELCSLMENQVRPALCCSVTIRKDGVIGDDIRFFAANIKSHARLVYDHVSDWLETGSSEQWQPSEEIAQVVRDLYAFSQARANWRETHAVVFPDRPDYRFELSADNDVVAIHADMRRTANRLVEESMITANICAGKTLQTTFGFGVFNTHAGFKAEKMADVVELMAVNGAPNADAETLATVEGFAALRRWLATQETSYLDNRIRKYQSYSEIGNQPLPHFAMGLDVYATWTSPIRKYGDMINHRLLKAHILGKAPVQTPDETVGEELALHRKHHKIAERNVADWLYARTLADEPAKETRFQAEIFDINRPGMRVRLLENGAMAFIPGALILDNKERIECNGEDGTVLIDKEVVYKLGDVLEIVLTEVNQENRSLVGKPTQVFADLVSETQTSAEQPAEGAENNEPQVEGHHHHHH | soluble
MSLFQSDLKLIVFQHGFFGERFVANLMNYPNSCPSYGACGIDGCTQCKEGLYNFSKNIIAVFSMPDPTTMPDFIENAEDFLPKVIPEADIAVAINLHPDVLAVMPEKLKGKVKALIVPVEEPRWCSPGLAKQIREKCDELGLEFAAPKPFCNLRPSEEHPTINRMIEEMRIGYPEFEIELLEDGKAYVRISRSQPCGCAYYIGVKLRGFDFSEVKEGKMRELWNVVAEAHHSYPCTASMERDNEYNETLLHVGGYIARHAVNRALGYEGDEDIPEHIKHIVLEGGSHHHHHH | soluble
MSLGASTNWDDHAIIIFGYPETIANSIILHFANFGEILEDFRVIKDFKKLNSKNMSKSPSLTAQKYPIYTGDGWVKLTYKSELSKSRALQENGIIMNGTLIGCVSYSPAALKQLASLKKSEEIINNKTSSQTSLSSKDLSNYRKTEGIFEKAKAKAVTSKVRNAEFKVSKNSTSFKNPRRLEIKDGRSLFLRNRGKIHSGVLSSIESDLKKREQASKSKKSWLNRLNNWLFGWNDLEGHHHHHH | soluble
MSLGAYLSSPKTNKESLDGGNLELDPSRYGLSCMQGWRKNMEDAHICYNNLKFNEIEEDVSIYGVFDGHGGPNVSKWISYNFRRIFIRCLKEANAGETGEDDCNGVYSSEELRLFENYYSNDYEDNIAYSCGSTALVAVILKGYLIVANAGDSRAIVCFNGNSLGMSTDHKPHLQTEEARIKKAGGYIANGRVDGNLNLTRAIGDLHYKRDPFLPQKDQKISAFPEITCVTLTPEDEFLFLACDGIWDCKDGQDVVGFVKTRLEKFEEIPDDPNNSLDNTENSEHMNTNNNSDQNEKLKSEEGHHHHHH | soluble
MSLGDKKIRIRRTNEQLDKEVISEFEKLVGEFGFGNVNLSALMKAADLEANVFYRRYGSMDNLYDRLAKQYDFWINNTIDISTLNTLGPKKFFAETFKTLFRNLSENSVMQKLLLYEMTTINSTTKRSAETRDVMNLNLITFYENLFAPAKINIKSIASILIGGIYYLILHKECAKICTIDYKTKEGENAFSEGIDFLTDIIFDRLEMYDRDKKAIRQMISDGISESKICKYMGINKNDLKTLLSEGHHHHHH | soluble
MSLGEHLEFDEKKIEKIMMIKRSYLNGEISLEEAKIKMQASFDQVTAQEFAICEQYLQKYGISDDVLAERMEEIIEIFDGVLVTTKLNLPSGHPIRTYLDEVDAIRRILGEMREMSKKKFIKNQWAQYYDQLGEINIHFARKQNQLFTALEKKGFDKPSKVMWTLDNNIRDMIKKAKEYLETDQDNAFLEIQDEVIEMVEDMMVKEEEILFPTTMDLLTDEDFIEMRKGDDEIGYCLIDSPLPYGKKENKDTDTSSNNELLKDLANVLQKHGMLTKASNDEVLDVSQGKLTLEQINLLFKHLQVDLSFVDENEIVKFYSDTKHRVFPRSAGVIGREVQNCHPRESVHTVEEIIRAFRAGEHDEAEFWLEMGGKFIYIIYNAVRDEDGNFKGVLEMMQDVTKIRSLTGSQRLLSWGDKEEEPKSKVTEHTGIENEYGITKETIIGDLVKEYPFIKEFLFNLSPKFSKLQNPIVFKTMSSIATVEMISEKGGFEVQDLIDRIVKEIQSRKEGHHHHHH | soluble
MSLGIGKEAEVKKSFEKTLSMYPIKNLEDLYDKEGYRDDQFDKNDKGTWIINSEMVIQPNNEDMVAKGMVLYMNRNTKTTNGYYYVDVTKDEDEGKPHDNEKRYPVKMVDNKIIPTKEIKDKNIKKEIENFKFFVQYGNFKDLSKYKDGDISYNPEVPSYSAKYQVTNDDYNVKQLRKRYDIPTNKAPKLLLKGTGNLKGSSVGYKDIEFTFVEKKGENIYFSDSLHLEPSEDKEGHHHHHH | soluble
MSLGKFLVEREQMRYPVDVYTGKIQAYPEGKPSAIAKIQVDGELMLTELGLEGDEQAEKKVHGGPDRALCHYPREHYLYWAREFPEQAELFVAPAFGENLSTDGLTESNVYMGDIFRWGEALIQVSQPRSPCYKLNYHFDISDIAQLMQNTGKVGWLYSVIAPGKVSADAPLELVSRVSDVTVQEAAAIAWHMPFDDDQYHRLLSAAGLSKSWTRTMQKRRLSGKIEDFSRRLWGKEGGSHHHHHH | soluble
MSLGKMVIGFAHPDFNDMFLGFLLAGVQAYEAEQTNVEVVYVDAENDSDGQIAQVEDLIAQGVDAIMAIPVDLIATEFIVDRAQQAGVPVVLINRDSVEREDAYVGSDSLQAGTIQMEEVAAVLKGKGKIAIMNGQMGHTAQINRTLGNKQVVDQYPGMEVVIEGTGGWSREKGKELMESWIESGQTFDAVVANNDEMAIGAIMAAEEAGIVDELVFAGIDGTPDALDYMSKGKLTISVFQDAKGQGQTGLEQAIKLAKGESAEKMTNIPYETITKRNVDEGHHHHHH | soluble
MSLGKPLIALGLEGSANKLGVGIILHDTNGSAKILANVRHTYITPPGQGFLPSDTAKHHRAWIIPLIKQAFAEAKISFKDIDCICFTKGPGIGAPLNSVALCARMLSLIHKKPLVAVNHCIGHIEMGREITGAQNPVVLYVSGGNTQVIAYSEKKYRIFGETLDIAIGNCLDRFARIIGLSNAPSPGYNIMQEAKKGKRFIELPYTVKGMDCSFSGLLSGVEAAATELLDPKNPSSVTKQDLCYSLQETGFAMLVEITERAMAHIRADSVLIVGGVGCNERLQQMMAEMSSDRGADVFSTDERFCIDNGIMIAQAGLLAYKTGDRCAVAESTITQRYRTDDVYISWRDEGHHHHHH | soluble
MSLGKTLFDKLWNRHVIYGKEGEPQLLYVDLHLIHEVTSPQAFEGLRMENRPLRRPDKTFATMDHNVPTEDIFNIQDLVAKKQIEALQTNCEEFGVTLADMGSDRQGIVHMVGPETGLTQPGKVIVCGDSHTATHGAFGAIGFGIGSSEVEHVFATQTIWQQKPKSMGIEINGNLPKGVYAKDIILHLIATYGVAFGTGYAVEYYGETIRNMSMEERMTICNMAIEGGAKMGMMAPDETTFEYVRGREYAPADMDKAISDWKTLQTDPDAEYDLHIKMDASILEPYVTWGTNPEMGVPFSKAFPEIKDMNYERAYEYMGLKPGQTAEEIELGYVFIGSCTNARLSDLEEAARIVKGNKVKNNIRALVVPGSRQVRNAAESIGLDKIFIEAGFEWREPGCSMCLGMNPDQVPDGVHCASTSNRNFEGRQGKGARTHLVSPAMAAAAAINGHFIDIRKEAVISGGNEGHHHHHH | not soluble
